B1: Membrane-associated guanylate kinase, WW and PDZ domain-containing protein 2, residues 296 to 340; numbered along this chain, Q86UL8 (parent)
chain: EDNEEPDPLPDNWEMAYTEKGEVYFIDHNTKTTSWLDPRLAKKAK
B2: Zinc finger MYM-type protein 3, residues 405 to 444; numbered along this chain, Q14202 (parent)
chain: DATRCSICQKTGEVLHEVSNGSVVHRLCSDSCFSKFRANK

Variants of: B1
Assay: abundance fitness (aPCA) (normalised: wild type 0, dead -1); higher = more abundant; growth selection in yeast, the domain comes from the species named
Settings: Homo sapiens

Abundance fitness of substitutions, site by site:
H28: A -0.417, G -0.431, F -0.267, V -0.407
T33: M -0.488, K -0.492, P -0.841, N -0.341, S -0.236
E4: S 0.078, L 0.03, R 0.109, C -0.005
E19: S -0.021, N 0.031, G -0.107, W -0.319
T32: W -0.325, N -0.353, H -0.434, F -0.843, C 0.007, K -0.303
K42: A 0.085, M 0.011, V 0.079, T -0.148
W35: F -0.083, R -0.362, Y -0.036, M -0.247, G -0.523
N3: A -0.099, S 0.021, V -0.042, R 0.157, W 0.059, Y 0.037
N12: E -0.303, M -0.292, D -0.136, G 0.088
V23: W -0.295, P -0.038
D37: V -0.595, K -0.246, I -0.832, H -0.623, G -0.51, L -0.699, F -0.846, Q -0.607, P -0.456
G21: C -0.26, Y -0.337, R -0.174, M -0.152
P8: R 0.052, E -0.069, Y -0.228
K45: V 0.209
A16: G -0.109, S 0.002
D7: A 0.185, G 0.104, E -0.008
F25: T -0.839
E14: L -0.561, F -0.705, R -0.415, S -0.083
Y17: S -0.03, R 0.049, L 0.024, D -0.355, P -0.828
M15: H -0.428, W -0.198, P -0.308
L36: R -0.051, I 0.086, V 0.025, K -0.012, G -0.198
E1: H -0.109, S -0.154
S34: R -0.629, G -0.463, C -0.181
R39: T -0.366, K -0.411, A -0.514
L9: S -0.453
D27: C -0.544, R -0.667, L -1.3, P -1.09
P6: N -0.025, C -0.081, E -0.138, I -0.088, D -0.266, R 0.029
Y24: S -0.703, L -0.557
D11: E 0.033, R 0.032, P -0.099, A 0.007
K31: M -0.008, D -0.38, H 0.103, Q 0.013, C -0.024
K43: N -0.324, T -0.043, G 0.066, D 0.029, W -0.2
L40: A 0.059, Q 0.024, T 0.012, N 0.117, W -0.133
T30: Q -0.155, G -0.256, D -0.324, C -0.185
W13: G -0.787
I26: V 0.01, S -0.677, E -0.585
T18: N -0.382, E -0.574, C -0.454, I -0.997
A41: R -0.058
P10: T -0.468, H -0.614, L -0.449, M -0.166, F -0.615
A44: W -0.118
K20: I -0.12, G -0.011, T -0.063, P -0.353, V -0.075, A -0.02
D2: R 0.05, S 0.068, Y 0.063, E -0.131
N29: G -0.019, Q -0.13, L -0.059
E22: L -0.321, I -0.517, C -0.377, T -0.295, K -0.234, P -0.825, S -0.227, R -0.409

Variants of: B2
Assay: as above
Settings: Homo sapiens

Abundance fitness, by site and new letter:
T3: N 0.025, F -0.181, C -0.726, K 0.272, R -0.047, L -0.061, Y -0.025, I -0.028, G 0.091, S -0.06, M 0.426, W -0.085, Q 0.205, D -0.088, V -0.388, P -0.561, A -0.366
C5: Y -0.97, L -0.835, F -0.776, Q -1.05, A -1.29, D -0.79, T -0.836, G -0.914, S -0.922, P -1.02, W -1.06, V -0.999
D1: W -0.504, V 0.083, Q -0.251, N 0.142, S -0.054, A -0.182, F -0.219, G 0.154, P -0.32, T 0.303, K 0.157, L -0.07, M 0.112, E 0.331, R -0.165
A2: M 0.48, E -0.013, F 0.186, T 0.35, W -0.204, H 0.041, N 0.461, I 0.327, C 0.305, P -0.225, Q 0.285, V -0.603, D 0.305, R -0.089, G -0.186, K 0.243
I7: Y 0.079, A -0.325, S -0.269, H -0.267, G -0.12, V -0.037, K -0.508, R -0.25, N 0.209, L -0.146, F -0.13, P -0.804, T -0.218, M -0.194, D -0.376, C -0.463, E -0.332, W -0.218
S6: N -0.218, L -0.312, A 0.104, F -0.012, E -0.103, I -0.021, R -0.228, M -0.365, Y 0.052, Q -0.285, W -0.182, V -0.469, D -0.302, G -0.252, P -0.009
C8: S -0.927, M -1.21, L -0.843, T -0.61, F -0.754, Y -0.774, E -0.85, G -0.86, R -0.787, V -1.11, Q -0.993, D -0.895, P -0.912, W -1.19, I -0.978, N -0.779, K -0.999
T11: K -0.354, D -0.104, H 0.088, G -0.127, C -0.519, F -0.221, A -0.27, I -0.203
R4: L -0.32, M 0.047, N 0.122, G -0.219, Y 0.079, W -0.563, P -0.335, F 0.147, D 0, V -0.193, E -0.211, C -0.012, I 0.211, H -0.039, S -0.35, A -0.2, T -0.125
K10: E -0.088, M -0.232, P -0.877, S -0.231, I -0.417, L -0.273, T -0.277, R -0.098, G -0.09, N -0.559, F -0.595, Q -0.208, V -0.649, W -0.479, D -0.49, C -0.367, Y -0.436, A -0.293
Q9: H -0.194, K -0.05, A -0.585, S -0.129, G -0.16, M -0.123, W -0.234, C -0.215, D -0.293, Y -0.014, E 0.023, L -0.22, T -0.195, F -0.087, V -0.803, P -0.606, R -0.288

Source: the Human Domainome abundance scans (Beltran et al. 2025)
